We go through one molecule from US20120282183A1 (CANCER RESEARCH TECHNOLOGY, published 2012).

The target of this assay is T1, human 5T4 oncofoetal glycoprotein (human, UniProt Q13641 32-420).
T1 construct: whole, on cells; also called h5T4; trophoblast glycoprotein
T1 sequence (looked up): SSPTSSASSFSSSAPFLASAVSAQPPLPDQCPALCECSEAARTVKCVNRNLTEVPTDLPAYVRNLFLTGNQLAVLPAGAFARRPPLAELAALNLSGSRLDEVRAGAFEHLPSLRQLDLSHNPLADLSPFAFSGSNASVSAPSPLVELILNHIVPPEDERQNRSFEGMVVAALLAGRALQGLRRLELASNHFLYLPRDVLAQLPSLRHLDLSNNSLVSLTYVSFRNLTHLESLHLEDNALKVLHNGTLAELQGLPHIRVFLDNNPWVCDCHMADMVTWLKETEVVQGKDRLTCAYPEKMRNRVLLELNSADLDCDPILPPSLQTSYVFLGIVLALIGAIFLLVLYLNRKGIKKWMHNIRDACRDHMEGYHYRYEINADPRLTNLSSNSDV
Nature of the assay: summary of the pull down and Western blot experiments. The method, then:
Denistometric scans of western blots between approximately 60-140 kDa (5T4 probe) and 30-140 kDa (CXCR4 probe). […] Under reducing conditions, the epitope recognized by 5T4 antibodies is destroyed but CXCR4 at 46 kD is detectable on the reduced gels of the 5T4 pulldown, (not shown). Thus, specific pull downs but not the controls, probed with either anti-CXCR4 or anti-5T4 detected molecules migrating ≈130 kDa in all the tumor lines.
Western blots were carried out using a BioRad Mini-PROTEAN Tetra (Thermo Fisher) supplemented with protease and phosphatase inhibitor cocktails (Thermo Fisher). RIPA buffer (50 mM Tris-Cl pH 7.4, 150 mM NaCl, 1% NP40, 0.25% Na-deoxycholate, 1 mM PMSF and protease and phosphatase inhibitor cocktail) was used as an alternative method of cell lysis. The compound PD98059 (Thermo Fisher) was applied to cells to inhibit MEK1 at 100 μM for 1 h prior to CXCL12 stimulation. Other primary antibodies used were ERK1/2, phospho-ERK1/2 (Thr202/Tyr204/Thr185/Tyr187), AKT and phospho-AKT (Thr308) (Cell Signalling Technology) at 1:1000. Following secondary antibody labelling using appropriate HRP conjugates (AbSerotec) hybridizing bands were detected using SuperSignal West Dura (Thermo Fischer). […]
For orientation: In western blotting, separated proteins are transferred to a membrane and probed.

B1: human CXCR4 (receptor, UniProt P61073 1-352, looked up)
chain: MEGISIYTSDNYTEEMGSGDYDSMKEPCFREENANFNKIFLPTIYSIIFLTGIVGNGLVILVMGYQKKLRSMTDKYRLHLSVADLLFVITLPFWAVDAVANWYFGNFLCKAVHVIYTVNLYSSVLILAFISLDRYLAIVHATNSQRPRKLLAEKVVYVGVWIPALLLTIPDFIFANVSEADDRYICDRFYPNDLWVVVFQFQHIMVGLILPGIVILSCYCIIISKLSHSKGHQKRKALKTTVILILAFFACWLPYYIGISIDSFILLEIIKQGCEFENTVHKWISITEALAFFHCCLNPILYAFLGAKFKTSAQHALTSVSRGSSLKILSKGKRGGHSSVSTESESSSFHSS
notes: whole, on cells; Endogenous CXCR4 of human tumour cell lines, tested as unreduced solubilised membrane fractions (Western blot, pull down); also called chemokine (C-X-C motif) receptor 4
As to B1, the binding result is recorded as “binds”.
